Reference: paper PMC2907061 (Traffic (Copenhagen, Denmark), 2009)
Read-outs that look alike come from different tables or passages of the source.

T1: MBP-Kap114 (yeast, UniProt P53067 1-1004)
T1 sequence (looked up): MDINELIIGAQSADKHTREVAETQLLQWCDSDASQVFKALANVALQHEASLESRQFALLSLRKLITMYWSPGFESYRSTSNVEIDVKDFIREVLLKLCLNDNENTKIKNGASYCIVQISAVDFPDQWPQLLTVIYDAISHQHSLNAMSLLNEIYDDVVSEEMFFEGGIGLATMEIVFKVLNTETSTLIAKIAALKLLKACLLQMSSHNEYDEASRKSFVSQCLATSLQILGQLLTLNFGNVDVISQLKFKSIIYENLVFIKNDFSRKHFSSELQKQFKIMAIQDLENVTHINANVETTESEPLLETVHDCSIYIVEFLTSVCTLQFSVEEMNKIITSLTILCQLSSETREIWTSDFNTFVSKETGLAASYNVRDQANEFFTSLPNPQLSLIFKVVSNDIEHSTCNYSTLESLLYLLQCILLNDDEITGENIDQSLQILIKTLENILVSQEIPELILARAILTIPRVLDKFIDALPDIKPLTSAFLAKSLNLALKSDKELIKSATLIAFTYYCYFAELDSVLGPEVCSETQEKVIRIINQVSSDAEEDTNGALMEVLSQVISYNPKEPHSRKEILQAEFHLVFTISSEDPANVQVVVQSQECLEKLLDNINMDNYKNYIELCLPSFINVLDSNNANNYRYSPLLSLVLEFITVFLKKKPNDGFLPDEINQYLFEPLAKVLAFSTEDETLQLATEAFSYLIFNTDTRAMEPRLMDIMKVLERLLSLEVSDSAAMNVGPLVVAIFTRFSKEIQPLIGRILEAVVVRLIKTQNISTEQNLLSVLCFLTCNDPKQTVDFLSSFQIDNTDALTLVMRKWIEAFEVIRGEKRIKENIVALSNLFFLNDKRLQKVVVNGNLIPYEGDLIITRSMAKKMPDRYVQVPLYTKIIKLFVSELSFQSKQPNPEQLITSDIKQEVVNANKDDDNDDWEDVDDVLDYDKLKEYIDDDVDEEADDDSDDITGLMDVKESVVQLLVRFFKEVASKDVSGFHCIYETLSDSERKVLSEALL

T2: untagged recombinant Kap95 (yeast, UniProt Q06142 1-861)
T2 sequence (looked up): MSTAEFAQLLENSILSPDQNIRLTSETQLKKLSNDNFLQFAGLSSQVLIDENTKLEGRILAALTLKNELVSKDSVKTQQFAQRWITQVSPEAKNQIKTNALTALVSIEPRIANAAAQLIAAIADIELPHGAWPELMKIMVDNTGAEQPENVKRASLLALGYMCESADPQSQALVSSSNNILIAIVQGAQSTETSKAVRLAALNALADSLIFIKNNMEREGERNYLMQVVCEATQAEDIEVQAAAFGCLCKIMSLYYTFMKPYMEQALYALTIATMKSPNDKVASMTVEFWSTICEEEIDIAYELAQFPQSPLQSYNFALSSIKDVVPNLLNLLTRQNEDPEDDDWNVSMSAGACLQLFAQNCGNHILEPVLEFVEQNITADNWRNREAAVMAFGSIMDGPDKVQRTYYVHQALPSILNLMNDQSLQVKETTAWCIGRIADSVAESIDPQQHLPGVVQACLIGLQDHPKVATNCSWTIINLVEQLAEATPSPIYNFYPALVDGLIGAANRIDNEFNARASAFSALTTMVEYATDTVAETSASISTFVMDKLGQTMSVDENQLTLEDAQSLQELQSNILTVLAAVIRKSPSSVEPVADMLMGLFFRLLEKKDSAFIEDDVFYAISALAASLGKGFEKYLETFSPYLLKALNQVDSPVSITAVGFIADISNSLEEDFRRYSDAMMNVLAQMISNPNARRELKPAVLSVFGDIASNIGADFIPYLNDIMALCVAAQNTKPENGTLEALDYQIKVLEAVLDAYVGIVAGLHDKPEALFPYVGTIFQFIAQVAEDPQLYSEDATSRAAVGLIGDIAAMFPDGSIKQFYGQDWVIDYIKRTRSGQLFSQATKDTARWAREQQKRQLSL

T3: MBP-Kap123 (yeast, UniProt P40069 1-1113)
T3 sequence (looked up): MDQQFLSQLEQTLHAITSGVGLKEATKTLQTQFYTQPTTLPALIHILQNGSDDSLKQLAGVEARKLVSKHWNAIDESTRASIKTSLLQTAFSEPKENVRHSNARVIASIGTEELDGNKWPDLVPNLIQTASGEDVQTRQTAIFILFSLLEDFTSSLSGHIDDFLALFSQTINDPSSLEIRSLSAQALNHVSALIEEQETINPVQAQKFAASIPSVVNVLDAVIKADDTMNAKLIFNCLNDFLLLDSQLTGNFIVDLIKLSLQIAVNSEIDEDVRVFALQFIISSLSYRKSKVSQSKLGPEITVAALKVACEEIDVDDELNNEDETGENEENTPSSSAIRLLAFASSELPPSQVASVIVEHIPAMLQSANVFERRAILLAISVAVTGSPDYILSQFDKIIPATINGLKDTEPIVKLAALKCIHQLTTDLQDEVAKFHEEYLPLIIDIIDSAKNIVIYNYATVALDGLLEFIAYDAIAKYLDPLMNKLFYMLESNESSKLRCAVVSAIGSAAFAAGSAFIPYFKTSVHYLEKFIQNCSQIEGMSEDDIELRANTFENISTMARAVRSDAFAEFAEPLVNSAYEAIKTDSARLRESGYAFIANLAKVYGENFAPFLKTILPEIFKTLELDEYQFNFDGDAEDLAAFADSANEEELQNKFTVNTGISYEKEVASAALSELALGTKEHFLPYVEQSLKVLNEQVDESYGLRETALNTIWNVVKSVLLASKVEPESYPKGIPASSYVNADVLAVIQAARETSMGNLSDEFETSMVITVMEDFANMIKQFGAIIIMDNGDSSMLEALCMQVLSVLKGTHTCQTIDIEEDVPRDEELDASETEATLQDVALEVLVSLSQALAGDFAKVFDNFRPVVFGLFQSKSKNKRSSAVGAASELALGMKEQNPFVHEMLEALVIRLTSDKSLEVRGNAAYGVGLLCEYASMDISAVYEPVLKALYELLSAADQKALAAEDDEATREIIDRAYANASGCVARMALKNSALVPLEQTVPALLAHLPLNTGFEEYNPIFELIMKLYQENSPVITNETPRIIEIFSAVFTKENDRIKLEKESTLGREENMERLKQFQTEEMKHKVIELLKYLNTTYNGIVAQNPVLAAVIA

B1: untagged recombinant Nap1 (natural protein, yeast, UniProt P25293 1-417, looked up)
chain: MSDPIRTKPKSSMQIDNAPTPHNTPASVLNPSYLKNGNPVRAQAQEQDDKIGTINEEDILANQPLLLQSIQDRLGSLVGQDSGYVGGLPKNVKEKLLSLKTLQSELFEVEKEFQVEMFELENKFLQKYKPIWEQRSRIISGQEQPKPEQIAKGQEIVESLNETELLVDEEEKAQNDSEEEQVKGIPSFWLTALENLPIVCDTITDRDAEVLEYLQDIGLEYLTDGRPGFKLLFRFDSSANPFFTNDILCKTYFYQKELGYSGDFIYDHAEGCEISWKDNAHNVTVDLEMRKQRNKTTKQVRTIEKITPIESFFNFFDPPKIQNEDQDEELEEDLEERLALDYSIGEQLKDKLIPRAVDWFTGAALEFEFEEDEEEADEDEDEEEDDDHGLEDDDGESAEEQDDFAGRPEQAPECKQS
B2: GST-Htz1_(1–53) (domain or fragment, yeast, UniProt Q12692 1-53, looked up)
chain: MSGKAHGGKGKSGAKDSGSLRSQSSSARAGLQFPVGRIKRYLKRHATGRTRVG
B3: H6-Srp1 (natural protein, yeast, UniProt Q02821 1-542, looked up)
chain: MDNGTDSSTSKFVPEYRRTNFKNKGRFSADELRRRRDTQQVELRKAKRDEALAKRRNFIPPTDGADSDEEDESSVSADQQFYSQLQQELPQMTQQLNSDDMQEQLSATVKFRQILSREHRPPIDVVIQAGVVPRLVEFMRENQPEMLQLEAAWALTNIASGTSAQTKVVVDADAVPLFIQLLYTGSVEVKEQAIWALGNVAGDSTDYRDYVLQCNAMEPILGLFNSNKPSLIRTATWTLSNLCRGKKPQPDWSVVSQALPTLAKLIYSMDTETLVDACWAISYLSDGPQEAIQAVIDVRIPKRLVELLSHESTLVQTPALRAVGNIVTGNDLQTQVVINAGVLPALRLLLSSPKENIKKEACWTISNITAGNTEQIQAVIDANLIPPLVKLLEVAEYKTKKEACWAISNASSGGLQRPDIIRYLVSQGCIKPLCDLLEIADNRIIEVTLDALENILKMGEADKEARGLNINENADFIEKAGGMEKIFNCQQNENDKIYEKAYKIIETYFGEEEDAVDETMAPQNAGNTFGFGSNVNQQFNFN

Experiments:
Test in all cases: pull-down
MBP-Kap114 [1] = biological target: T1, MBP-Kap114
MBP-Kap114 [2] = biological target: T1, MBP-Kap114; remark: listed apart in the source
[3] = biological target: T2, untagged recombinant Kap95
[4] = biological target: B1
MBP-Kap123 = biological target: T3, MBP-Kap123
[5] = biological target: T2, untagged recombinant Kap95; remark: listed apart in the source

Binder: B1
binding result (MBP-Kap114 [1]): binds

Binder: B2
binding result (MBP-Kap114 [2]): binds
binding result [3]: binds
binding result [4]: binds
binding result (MBP-Kap123): binds

Binder: B3
binding result [5]: binds
